Results: paper PMC5898196 (Science (New York, N.Y.), 2017)

Biological target: the molecule itself
Experiment: cryo-EM structure

B1: Recombinant full-length human TRPM4 (hTRPM4b) (natural protein)
chain: not shown
modifications: glycan at Asn992
For B1, the “stoichiometry N” value was 4.
